Values quoted from earlier work, collected in article PMC6557900.

Target: GHR pY487 pY487 region (Homo sapiens) (UniProt P10912)
Sequence (P10912 whole entry, looked up): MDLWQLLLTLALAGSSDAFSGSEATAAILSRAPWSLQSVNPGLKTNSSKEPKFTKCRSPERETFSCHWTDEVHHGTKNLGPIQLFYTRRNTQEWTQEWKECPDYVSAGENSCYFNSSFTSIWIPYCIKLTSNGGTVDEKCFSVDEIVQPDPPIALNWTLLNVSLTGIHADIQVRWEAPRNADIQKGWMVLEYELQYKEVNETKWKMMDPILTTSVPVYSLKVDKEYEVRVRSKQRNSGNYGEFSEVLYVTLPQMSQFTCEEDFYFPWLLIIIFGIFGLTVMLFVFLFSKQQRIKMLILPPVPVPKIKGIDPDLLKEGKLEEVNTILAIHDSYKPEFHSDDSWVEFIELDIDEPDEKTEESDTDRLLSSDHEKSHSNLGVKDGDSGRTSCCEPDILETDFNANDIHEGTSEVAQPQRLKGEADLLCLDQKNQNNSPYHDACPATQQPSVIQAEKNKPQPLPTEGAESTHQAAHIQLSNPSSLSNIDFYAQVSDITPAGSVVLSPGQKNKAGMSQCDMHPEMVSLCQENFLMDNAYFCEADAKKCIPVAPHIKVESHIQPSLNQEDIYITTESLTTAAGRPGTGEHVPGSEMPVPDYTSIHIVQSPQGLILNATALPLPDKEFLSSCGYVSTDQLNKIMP

Sequence of SOCS2 (O14508 whole entry): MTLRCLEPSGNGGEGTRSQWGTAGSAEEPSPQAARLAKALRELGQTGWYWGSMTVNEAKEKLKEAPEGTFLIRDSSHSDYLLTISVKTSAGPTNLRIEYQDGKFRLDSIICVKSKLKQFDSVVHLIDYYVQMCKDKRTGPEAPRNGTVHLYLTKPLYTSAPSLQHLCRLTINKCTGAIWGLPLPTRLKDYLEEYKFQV

SOCS2 (from UniProt O14508)
Kd: 11.3 µM
